The experiment addresses T1, recombinant human C-reactive protein (human), P02741.
T1 chain: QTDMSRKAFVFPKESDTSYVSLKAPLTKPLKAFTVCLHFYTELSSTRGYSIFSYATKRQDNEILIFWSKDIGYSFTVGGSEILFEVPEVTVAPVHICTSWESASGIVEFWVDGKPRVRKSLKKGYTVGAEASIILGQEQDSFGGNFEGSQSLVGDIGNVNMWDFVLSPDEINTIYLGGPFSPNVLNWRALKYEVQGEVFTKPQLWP
The experiment is described as follows: cryo-EM structure; hCRP 6 mg/ml incubated with 4.5 mM CPS23F on ice for ~1 h, 0.02% Tween-20; C5 symmetry applied during reconstruction; 2.78 Å. Conditions: remark: other sources report otherwise.

B1: recombinant human C-reactive protein, P02741-1 19-224 (natural protein)
chain: T1 chain
Take B1: the stoichiometry N – broadly, a count of units in the complex or per binding partner – was 5.

Values taken from paper PMC12705745.
